In the assay the target is T1, recombinant human GFRα-like His-tag receptor (R&D 9647-GR-050) (human, UniProt Q6UXV0 19-351).
T1 construct: Bought protein, captured on a Pierce nickel coated plate at 0.1 µg/mL; also called GFRAL receptor; GDNF family receptor alpha-like; not shown: His-tag
T1 sequence (looked up): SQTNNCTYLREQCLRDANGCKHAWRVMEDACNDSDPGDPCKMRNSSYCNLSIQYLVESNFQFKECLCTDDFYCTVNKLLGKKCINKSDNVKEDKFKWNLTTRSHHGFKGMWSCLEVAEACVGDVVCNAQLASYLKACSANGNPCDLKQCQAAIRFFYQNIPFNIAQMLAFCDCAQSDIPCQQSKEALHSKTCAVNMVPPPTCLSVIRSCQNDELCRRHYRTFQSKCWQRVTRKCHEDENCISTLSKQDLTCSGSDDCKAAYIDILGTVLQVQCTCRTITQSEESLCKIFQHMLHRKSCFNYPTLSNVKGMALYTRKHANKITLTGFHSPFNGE
Kind of assay: ELISA; His-tagged GFRAL captured on nickel coated plate, GDF15 titrated 100 to 0.005 ng/mL, detected with anti-GDF15 primary antibody. The method, then:
To validate binding of the synthesized peptides to the GFRAL receptor, an ELISA assay was developed to determine the binding affinity of the peptides for their receptor. The primary antibody (Abcam ab206414) was diluted to 1 μg/mL. The secondary antibody was diluted by placing 5 μL into 10 mL assay buffer. GDF15 was run at concentrations of 100 ng/mL to 0.005 ng/mL. The recombinant human GFRα-like His-tag receptor (R&D 9647-GR-050) was added to the Pierce™ nickel coated plate (ThermoFisher Scientific 15442) at 0.1 μg/mL in a total volume of 100 μL.

B1: Recombinant human GDF-15 (rhGDF15) (ligand, UniProt Q99988 197-308, looked up)
chain: ARNGDHCPLGPGRCCRLHTVRASLEDLGWADWVLSPREVQVTMCIGACPSQFRAANMHAQIKTSLHRLKPDTVPAPCCVPASYNPMVLIQKTDTGVSLQTYDDLLAKDCHCI
notes: Run at 100 ng/mL to 0.005 ng/mL in the ELISA and detected with primary antibody Abcam ab206414; also called growth and differentiation factor 15; MIC-1
With B1, the Kd stood at 1.03 ng/mL.

The values above are taken from patent US20220127316A1 (University of Pennsylvania, published 2022).
